Source: paper PMC11974935 (bioRxiv, 2025)

Biological target: the molecule itself
Experiment: mass photometry

B1: full-length, wild-type Cdc13 (natural protein, S. cerevisiae, UniProt P32797 1-924, looked up)
chain: MDTLEEPECPPHKNRIFVSSSKDFEGYPSKAIVPVQFVALLTSIHLTETKCLLGFSNFERRGDQSQEDQYLIKLKFKDRGSERLARITISLLCQYFDIELPDLDSDSGASPTVILRDIHLERLCFSSCKALYVSKHGNYTLFLEDIKPLDLVSVISTISTKSTNSSKHSSSELISECDLNNSLVDIFNNLIEMNRDEKNRFKFVKLIHYDIELKKFVQDQQKVLSQKSKAAAINPFFVPNRLGIPYIESQNEFNSQLMTLNVDEPTTDISNMGEEMHDSADPIEDSDSSTTSSTGKYFSSKSYIQSQTPERKTSVPNNWHDDDSGSKRKRKLSFHSPNASSIRKAISYEQLSLASVGSVERLEGKIVGMNPPQFASINEFKYCTLKLYFTQLLPNVPDKVLVPGVNCIEIVIPTRERICELFGVLNCQSDKISDILLLEKPDRISVEVERILWDNDKTASPGMAVWSLKNISTDTQAQAQVQVPAQSSASIDPSRTRMSKMARKDPTIEFCQLGLDTFETKYITMFGMLVSCSFDKPAFISFVFSDFTKNDIVQNYLYDRYLIDYENKLELNEGFKAIMYKNQFETFDSKLRKIFNNGLRDLQNGRDENLSQYGIVCKMNIKVKMYNGKLNAIVRECEPVPHSQISSIASPSQCEHLRLFYQRAFKRIGESAISRYFEEYRRFFPIHRNGSHLAKLRFDEVKHEPKKSPTTPALAEHIPDLNADVSSFDVKFTDISSLLDSSARLPRPQQTHKSNTLYSCEGRIIAIEYHASDLCFHITNELPLLQTRGLAPERVLQLHIITSKNFAYFFNRSSAYLQRQPLEEKYTQLAQFLGHSFKFNITSSLTLFPDTTVALQIWCPIECTFRELQQQLAHPKVAAAPDSGSLDCAINATVNPLRLLAAQNGVTVKKEEDNDDDAGAVPTS
stoichiometry N: 2
